Measurements from publication PMC9481740 (The Journal of Cell Biology, 2022).
Where “and” joins values, the source holds several entries; their conditions need not be identical. Identical values can stand only once.

Key:
[1] = target: the molecule itself; experiment: mass photometry; Refeyn TwoMP; sample diluted to a final 10 nM in Spindly buffer (50 mM Hepes pH 8.0, 250 mM NaCl, 2 mM TCEP); crosslinked samples measured after dilution beside untreated controls
[2] = target: the molecule itself; experiment: not stated; unpublished observations; dimer-tetramer equilibrium, tetramer prevailing at micromolar concentration
[3] = target: the molecule itself; experiment: crystal structure; Spindly 1-100, Se-SAD, refined to 2.8 Å; Bis-Tris Propane/HCl pH 6.5, 19% PEG3350, 0.2 M potassium thiocyanate

| Protein | stoichiometry N [1] | also measured |
| --- | --- | --- |
| ^mChSpindly^CC2* (R295E-K297E) (natural protein, human, UniProt Q96EA4 1-605, looked up, source: E. coli BL21 CodonPlus, purified (HisTrap, Resource Q, Superdex 200); not shown: mCherry, N-terminal, kept) MEADIITNLRCRLKEAEEERLKAAQYGLQLVESQNELQNQLDKCRNEMMTMTESYEQEKYTLQREVELKSRMLESLSCECEAIKQQQKMHLEKLEEQLSRSHGQEVNELKTKIEKLKVELDEARLSEKQLKHQVDHQKELLSCKSEELRVMSERVQESMSSEMLALQIELTEMESMKTTLKEEVNELQYRQEQLELLITNLMRQVDRLKEEKEEREKEAVSYYNALEKARVANQDLQVQLDQALQQALDPNSKGNSLFAEVEDRRAAMERQLISMKVKYQSLKKQNVFNREQMQEMELQIATLLQMKGSQTEFEQQERLLAMLEQKNGEIKHLLGEIRNLEKFKNLYDSMESKPSVDSGTLEDNTYYTDLLQMKLDNLNKEIESTKGELSIQRMKALFESQRALDIERKLFANERCLQLSESENMKLRAKLDELKLKYEPEETVEVPVLKKRREVLPVDITTAKDACVNNSALGGEVYRLPPQKEETQSCPNSLEDNNLQLEKSVSIYTPVVSLSPHKNLPVDMQLKKEKKCVKLIGVPADAEALSERSGNTPNSPRLAAESKLQTEVKEGKETSSKLEKETCKKLHPILYVSSKSTPETQCPQQ | 2 |  |
| Spindly^1–275 (domain or fragment, human, UniProt Q96EA4 1-275, looked up, source: TnAO38 insect cells (baculovirus), purified (HisTrap, Resource Q, Superdex 200)) MEADIITNLRCRLKEAEEERLKAAQYGLQLVESQNELQNQLDKCRNEMMTMTESYEQEKYTLQREVELKSRMLESLSCECEAIKQQQKMHLEKLEEQLSRSHGQEVNELKTKIEKLKVELDEARLSEKQLKHQVDHQKELLSCKSEELRVMSERVQESMSSEMLALQIELTEMESMKTTLKEEVNELQYRQEQLELLITNLMRQVDRLKEEKEEREKEAVSYYNALEKARVANQDLQVQLDQALQQALDPNSKGNSLFAEVEDRRAAMERQLISM |  | stoichiometry N [2]: 2 and 4 |
| Spindly^1–100 (domain or fragment, human, UniProt Q96EA4 1-100, looked up, selenomethionine protein was also made for phasing; source: E. coli BL21 (DE3), purified (Ni-Sepharose, ion exchange, S200 SEC); not shown: His6, N-terminal, cleaved) MEADIITNLRCRLKEAEEERLKAAQYGLQLVESQNELQNQLDKCRNEMMTMTESYEQEKYTLQREVELKSRMLESLSCECEAIKQQQKMHLEKLEEQLSR |  | stoichiometry N [3]: 2 |
| ^mChSpindly^ΔRV (natural protein, human, UniProt Q96EA4 1-605, looked up, also called ^mChSpindly^∆RV; source: E. coli BL21 CodonPlus, purified (HisTrap, Resource Q, Superdex 200); not shown: mCherry, N-terminal, kept) MEADIITNLRCRLKEAEEERLKAAQYGLQLVESQNELQNQLDKCRNEMMTMTESYEQEKYTLQREVELKSRMLESLSCECEAIKQQQKMHLEKLEEQLSRSHGQEVNELKTKIEKLKVELDEARLSEKQLKHQVDHQKELLSCKSEELRVMSEQESMSSEMLALQIELTEMESMKTTLKEEVNELQYRQEQLELLITNLMRQVDRLKEEKEEREKEAVSYYNALEKARVANQDLQVQLDQALQQALDPNSKGNSLFAEVEDRRAAMERQLISMKVKYQSLKKQNVFNREQMQRMKLQIATLLQMKGSQTEFEQQERLLAMLEQKNGEIKHLLGEIRNLEKFKNLYDSMESKPSVDSGTLEDNTYYTDLLQMKLDNLNKEIESTKGELSIQRMKALFESQRALDIERKLFANERCLQLSESENMKLRAKLDELKLKYEPEETVEVPVLKKRREVLPVDITTAKDACVNNSALGGEVYRLPPQKEETQSCPNSLEDNNLQLEKSVSIYTPVVSLSPHKNLPVDMQLKKEKKCVKLIGVPADAEALSERSGNTPNSPRLAAESKLQTEVKEGKETSSKLEKETCKKLHPILYVSSKSTPETQCPQQ | 2 |  |
| ^mChSpindly^76–605 (domain or fragment, human, UniProt Q96EA4 76-605, looked up, source: E. coli BL21 CodonPlus, purified (HisTrap, Resource Q, Superdex 200); not shown: mCherry, N-terminal, kept) LSCECEAIKQQQKMHLEKLEEQLSRSHGQEVNELKTKIEKLKVELDEARLSEKQLKHQVDHQKELLSCKSEELRVMSERVQESMSSEMLALQIELTEMESMKTTLKEEVNELQYRQEQLELLITNLMRQVDRLKEEKEEREKEAVSYYNALEKARVANQDLQVQLDQALQQALDPNSKGNSLFAEVEDRRAAMERQLISMKVKYQSLKKQNVFNREQMQRMKLQIATLLQMKGSQTEFEQQERLLAMLEQKNGEIKHLLGEIRNLEKFKNLYDSMESKPSVDSGTLEDNTYYTDLLQMKLDNLNKEIESTKGELSIQRMKALFESQRALDIERKLFANERCLQLSESENMKLRAKLDELKLKYEPEETVEVPVLKKRREVLPVDITTAKDACVNNSALGGEVYRLPPQKEETQSCPNSLEDNNLQLEKSVSIYTPVVSLSPHKNLPVDMQLKKEKKCVKLIGVPADAEALSERSGNTPNSPRLAAESKLQTEVKEGKETSSKLEKETCKKLHPILYVSSKSTPETQCPQQ | 2 |  |
